Where no end group is shown, it is not given here.
Tests used:
PCSK9 GOF-D374Y protein = PCSK9 GOF-D374Y protein (Homo sapiens, UniProt Q8NBP7, D374Y); test: Cellular diI-LDL uptake in HepG2 cells with PCSK9 GOF-D374Y; format: cell-based
Description: […] After 16 h, dil-LDL (5 ug/ml) was added to the incubation mixtures. After 4 h, fluorescence was measured (Ex: 520 nm/Em: 575 nm; cutoff: 550 nm). Dil-LDL uptake is calculated as RFU corrected for the number of cells.
After 16 h, dil-LDL (5 ug/ml) was added to the incubation mixtures. After 4 h, fluorescence was measured (Ex: 520 nm/Em: 575 nm; cutoff: 550 nm). Dil-LDL uptake is calculated as RFU corrected for the number of cells. The PCSK9 and −/+SRX55 [SEQ ID NO: 2] mixtures were pre-incubated for 3 hrs at 37 C prior to addition to the cells.
LDL internalization was measured by uptake of a fluorescently tagged LDL molecule (diI-LDL) in the absence of exogenous PCSK9 (Cnt), in the presence of exogenous PCSK9 (normal PCSK9=WT, D374Y mutant PCSK9=DY), or in the presence of PCSK9 and a tested peptide (indicated as SRX##, or SRX if a single peptide results is shown in a graph). […]
Peptide activity was assessed by culturing cells with: i) no SRX peptide/PCSK9 protein complex (control, Cnt); ii) PCSK9 protein; and iii) SRX peptide/PCSK9 complex. […]
Cells were cultured using one of the combinations of conditions described in the preceding paragraph for 16 hours. […] Cell specimens were rinsed twice with PBS and then fluorescence measured with excitation at 360 nm and emission detected at 460 nm to measure DNA content. […]

PCSK9-WT protein = biological target: T1, PCSK9-WT protein (Homo sapiens, UniProt Q8NBP7); test: FACS analysis of cell surface LDLR in HuH7 cells with PCSK9-WT; format: cell-based
T1 construct: V5
Description: HuH7 cells were incubated for 18 h in the absence (Cnt) or presence of 0.75 μg/ml PCSK9-WT protein alone (WT) or mixed with 100 μM of various SRX peptides. The level of LDLR at the cell surface was measured by FACS using anti human LDLR Ab and a suitable secondary Ab labeled with Alexa 647. Cell surface LDLR is reported relative to Cnt. % inhibition of activity was calculated as [SRX−WT]/[Cnt−WT]×100%.
See, FIG. 1. In that experiment, the LDLR levels of a hepatocyte culture model (HuH7 cells) were measured by fluorescence activated cell sorting (FACS) in accordance with Example III. Cell surface LDLR is reported as a percentage of Basal levels of LDLR, indicated by the Cnt_Amm.Bic, Cnt_Ac.Acid, and Cnt bars in the top graph. See, FIG. 1 (top panel). LDLR levels in the presence of exogenous PCSK9 is indicated as WT_Amm.Bic, WT-Ac.Acid, and WT, and Exogenous PCSK9 in combination with a tested peptide is indicated as SRX##. The measured LDLR levels are reported as % versus basal controls (Cnt) of the respective group. […] This was further shown a percent inhibition (% inhibition was calculated as [SRX−WT]/[Cnt−WT]×100%) where positive modulation (increase) of LDLR level is reported as positive % inhibition, and negative modulation (decrease) of LDLR level is reported as negative % inhibition. See, FIG. 1 (bottom panel).
Benjannet et al., “Effects of the prosegment and pH on the activity of PCSK9: evidence for additional processing events” J Biol Chem. 285(52): 40965-40978 (2010). The cells were then washed 3× with solution A (calcium/magnesium-free Dulbecco's PBS (Invitrogen) containing 0.5% bovine serum albumin (Sigma) and 1 g/liter glucose)). The cells were then incubated for 10 min at room temperature with 1× Versene solution (Invitrogen) followed by the addition of 5 ml of solution A. The cells were then incubated for 40 min in solution A containing a human LDLR mAb-C7 (1:100; Santa Cruz Biotechnology). Following washes, the cells were then incubated for 20 min in solution A containing a secondary antibody (Alexa Fluor 647 donkey anti-mouse antibody; 1:250; Molecular Probes).
Following suspension in PBS containing 0.2% of propidium iodide, the cells were analyzed by FACS for both propidium iodide (dead cells) and LDLR in live cells with Alexa Fluor 647 using the FACS BD LSR (BD Biosciences).

T1 sequence (Q8NBP7 153-692): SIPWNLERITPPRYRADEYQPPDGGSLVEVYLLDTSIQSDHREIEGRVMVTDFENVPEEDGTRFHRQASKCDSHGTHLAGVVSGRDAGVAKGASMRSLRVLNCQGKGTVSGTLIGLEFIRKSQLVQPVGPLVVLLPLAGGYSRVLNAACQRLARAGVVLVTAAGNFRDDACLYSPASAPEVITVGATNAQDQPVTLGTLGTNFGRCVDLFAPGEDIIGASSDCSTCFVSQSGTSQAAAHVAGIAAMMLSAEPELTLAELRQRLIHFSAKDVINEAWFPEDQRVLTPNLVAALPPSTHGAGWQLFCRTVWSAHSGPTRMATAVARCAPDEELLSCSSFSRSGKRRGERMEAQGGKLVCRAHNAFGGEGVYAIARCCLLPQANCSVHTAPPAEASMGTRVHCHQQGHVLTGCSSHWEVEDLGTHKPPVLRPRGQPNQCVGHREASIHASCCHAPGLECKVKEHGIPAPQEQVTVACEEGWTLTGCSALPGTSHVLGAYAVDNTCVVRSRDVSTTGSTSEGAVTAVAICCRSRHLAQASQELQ
Sequence of PCSK9 GOF-D374Y protein (Q8NBP7 153-692 D374Y): as the sequence (Q8NBP7 153-692) above, with D222Y counted along it

LDL internalization (dil-LDL % uptake vs Cnt) (PCSK9 GOF-D374Y protein; HepG2, 2 μg/ml PCSK9 GOF-D374Y, dose dependent manner (FIG. 5)): positively modulated (increased) | LDL internalization (dil-LDL % uptake vs Cnt) (PCSK9 GOF-D374Y protein; HepG2, D374Y 0.6 ug/ml, pre-incubated 3 hrs at 37 C, dose dependent manner (FIG. 6)): positively modulated (increased) | modulation of LDLR cell surface level (PCSK9-WT protein; HuH7 cells, FACS, exogenous WT PCSK9 plus peptide (FIG. 1, 100 μM)): positively modulate (increase) | increase of cell surface expression of LDL-R (PCSK9-WT protein; WT PCSK9, FACS in HuH7 cells): 100%
Substance: Val-Tyr-Val-Arg-Phe-Trp (VYVRFW; not fully specified (C-terminus); printed as Val-Tyr-Val-Arg-Phe-Trp) [Compound 1]
